Measurements published in patent US12161669.

Legend:
[1] = target: RhoB GTPase, recombinant (full length RhoB with the C-terminal CKVL motif deleted, six-HIS tag, expressed in E. coli) (UniProt P62745); experiment: BLI (BLItz), RhoB immobilised on Ni-NTA biosensor, B30.2 domain in solution, 1:1 fit, no pAg
[2] = target: RhoB GTPase, recombinant (full length RhoB with the C-terminal CKVL motif deleted, six-HIS tag, expressed in E. coli) (UniProt P62745); experiment: BLI (BLItz), RhoB immobilised on Ni-NTA biosensor, B30.2 domain in solution, 1:1 fit, no pAg; kd(1/Ms) [sic]
[3] = target: RhoB GTPase, recombinant (full length RhoB with the C-terminal CKVL motif deleted, six-HIS tag, expressed in E. coli) (UniProt P62745); experiment: BLI (BLItz), RhoB immobilised on Ni-NTA biosensor, BFI in solution with the phosphoantigen cHDMAPP at 1:1; kd(1/Ms) [sic]
[4] = target: RhoB GTPase, recombinant (full length RhoB with the C-terminal CKVL motif deleted, six-HIS tag, expressed in E. coli) (UniProt P62745); experiment: BLI (BLItz), RhoB immobilised on Ni-NTA biosensor, BFI in solution, 1:1 fit, no pAg
[5] = target: RhoB GTPase, recombinant (full length RhoB with the C-terminal CKVL motif deleted, six-HIS tag, expressed in E. coli) (UniProt P62745); experiment: BLI (BLItz), RhoB immobilised on Ni-NTA biosensor, BFI in solution with the phosphoantigen cHDMAPP at 1:1
[6] = target: RhoB GTPase, recombinant (full length RhoB with the C-terminal CKVL motif deleted, six-HIS tag, expressed in E. coli) (UniProt P62745); experiment: BLI (BLItz), RhoB immobilised on Ni-NTA biosensor, BFI in solution, 1:1 fit, no pAg; kd(1/Ms) [sic]

Row | Kd [1] [µM] | koff [1] [s⁻¹] | kon [2] [M⁻¹ s⁻¹] | kon [3] [M⁻¹ s⁻¹] | Kd [4] [µM] | koff [4] [s⁻¹] | Kd [5] [µM] | koff [5] [s⁻¹] | kon [6] [M⁻¹ s⁻¹] | Substance
1 | 102 | 0.206 | 2020 | – | – | – | – | – | – | BTN3A1 (CD277) B30.2 domain, recombinant (from UniProt O00481 328-513) (receptor)
2 | – | – | – | 172 | 19.7 | 0.0435 | 666 | 0.115 | 2200 | BTN3A1 (CD277) full-length intracellular domain, recombinant (from UniProt O00481 272-513) (receptor)
